# From paper PMC314469, “Protein Interaction Networks by Proteome Peptide Scanning” (PLoS Biology, 2004)
# T1: Yfr024 SH3 (LSB3_YEAST), P43603
# T1 chain: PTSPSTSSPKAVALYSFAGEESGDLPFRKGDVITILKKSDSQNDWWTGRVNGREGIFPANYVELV
# T2: Boi1 SH3 (BOI1_YEAST), P38041
# T2 chain: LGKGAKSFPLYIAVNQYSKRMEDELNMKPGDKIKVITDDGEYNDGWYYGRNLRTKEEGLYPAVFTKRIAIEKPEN
# T3: Yhr016c SH3 (YSC84_YEAST), P32793
# T3 chain: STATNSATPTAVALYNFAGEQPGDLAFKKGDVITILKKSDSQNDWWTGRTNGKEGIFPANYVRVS
# T4: Boi2 SH3 (BOI2_YEAST), P39969
# T4 chain: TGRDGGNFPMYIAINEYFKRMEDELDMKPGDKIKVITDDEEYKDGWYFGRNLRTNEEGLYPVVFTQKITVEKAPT
# T5: Rvs167 SH3 (RV167_YEAST), P39743
# T5 chain: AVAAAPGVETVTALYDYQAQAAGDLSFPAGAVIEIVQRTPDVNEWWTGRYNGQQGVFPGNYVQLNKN
# Target: T1, Yfr024 SH3 (LSB3_YEAST), P43603
# Assay: SPOT array
row,"normalised SPOT signal, Boehringer light units (BLU); mean over the file's lines of this peptide",Binder
1,164,LRIPETPVKKSPLV [YJL187C 191-204]
2,2940,LRKPSAPKRMSSIS [YMR086W 52-65]
3,94.9,LLAPNSPLKNTKSV [YOR124C 391-404]
4,314,LLPPTDPFRRKHEQ [YHR148W 63-76]
5,541,LIQPTAPIRDPTRF [YIR029W 48-61]
6,296,LKYPYFPTKMSYLQ [YNL059C 229-242]
7,6280,LPAPPPPPRRGPAP [YOR181W 341-354]
8,15100,LPLPTLPDRQLFQT [YPL115C 570-583]
9,1670,LQIPPLPLKLLTPV [YGR204W 307-320]
10,197,LQNPLGPERTFLIM [YLR253W 491-504]
11,15900,LPPPIIPLRKYGHN [YGR233C 693-706]
12,6130,LKRPILPSKNMDHT [YOR191W 344-357]

# Second part, the binder before the results:
row,Binder,"normalised SPOT signal, Boehringer light units (BLU); mean over the file's lines of this peptide"
1,LMPPDSPPRMTENT [YBR275C 1790-1803],1520
2,LPVPQLPPKLLVYP [YBR279W 17-30],4360
3,LLKPETPSKRLVIR [YGL216W 249-262],1480
4,LRKPRAPMRNVIIT [YER141W 449-462],3330
5,LRLPEIPPKGDFDV [YFL036W 1327-1340],322
6,LNSPDLPERTKLRN [YDL225W 445-458],35600
7,LPPPRSPNRPTLSD [YER158C 363-376],33900
8,LPVPPPPVRPSISF [YDL140C 239-252],11400
9,LPAPHRPEKYKERF [YGR154C 67-80],1230
10,LRDPVIPIKLAAEK [YGL195W 2564-2577],68.1

# Target: T2, Boi1 SH3 (BOI1_YEAST), P38041
# Assay: SPOT array
row,"normalised SPOT signal, Boehringer light units (BLU); mean over the file's lines of this peptide",Binder
1,66.9,LRIPETPVKKSPLV [YJL187C 191-204]
2,119,LRKPSAPKRMSSIS [YMR086W 52-65]
3,57.9,LLAPNSPLKNTKSV [YOR124C 391-404]
4,56.5,LLPPTDPFRRKHEQ [YHR148W 63-76]
5,30300,LIQPTAPIRDPTRF [YIR029W 48-61]
6,91.9,LKYPYFPTKMSYLQ [YNL059C 229-242]
7,2960,LPAPPPPPRRGPAP [YOR181W 341-354]
8,125,LPLPTLPDRQLFQT [YPL115C 570-583]
9,113,LQIPPLPLKLLTPV [YGR204W 307-320]
10,121,LQNPLGPERTFLIM [YLR253W 491-504]
11,20400,LPPPIIPLRKYGHN [YGR233C 693-706]
12,133,LKRPILPSKNMDHT [YOR191W 344-357]

# The remaining lines, values behind:
row,Binder,"normalised SPOT signal, Boehringer light units (BLU); mean over the file's lines of this peptide"
1,LMPPDSPPRMTENT [YBR275C 1790-1803],47.3
2,LPVPQLPPKLLVYP [YBR279W 17-30],375
3,LLKPETPSKRLVIR [YGL216W 249-262],229
4,LRKPRAPMRNVIIT [YER141W 449-462],197
5,LRLPEIPPKGDFDV [YFL036W 1327-1340],1.5
6,LNSPDLPERTKLRN [YDL225W 445-458],6110
7,LPPPRSPNRPTLSD [YER158C 363-376],53500
8,LPVPPPPVRPSISF [YDL140C 239-252],37.7
9,LPAPHRPEKYKERF [YGR154C 67-80],89.9
10,LRDPVIPIKLAAEK [YGL195W 2564-2577],200

# Target: T3, Yhr016c SH3 (YSC84_YEAST), P32793
# Assay: SPOT array
row,"normalised SPOT signal, Boehringer light units (BLU); mean over the file's lines of this peptide",Binder
1,37.4,LRIPETPVKKSPLV [YJL187C 191-204]
2,270,LRKPSAPKRMSSIS [YMR086W 52-65]
3,53.5,LLAPNSPLKNTKSV [YOR124C 391-404]
4,224,LLPPTDPFRRKHEQ [YHR148W 63-76]
5,286,LIQPTAPIRDPTRF [YIR029W 48-61]
6,184,LKYPYFPTKMSYLQ [YNL059C 229-242]
7,1260,LPAPPPPPRRGPAP [YOR181W 341-354]
8,6800,LPLPTLPDRQLFQT [YPL115C 570-583]
9,195,LQIPPLPLKLLTPV [YGR204W 307-320]
10,49,LQNPLGPERTFLIM [YLR253W 491-504]
11,18400,LPPPIIPLRKYGHN [YGR233C 693-706]
12,251,LKRPILPSKNMDHT [YOR191W 344-357]

# Continued, binder first:
row,Binder,"normalised SPOT signal, Boehringer light units (BLU); mean over the file's lines of this peptide"
1,LMPPDSPPRMTENT [YBR275C 1790-1803],485
2,LPVPQLPPKLLVYP [YBR279W 17-30],196
3,LLKPETPSKRLVIR [YGL216W 249-262],59.7
4,LRKPRAPMRNVIIT [YER141W 449-462],257
5,LRLPEIPPKGDFDV [YFL036W 1327-1340],124
6,LNSPDLPERTKLRN [YDL225W 445-458],59600
7,LPPPRSPNRPTLSD [YER158C 363-376],12200
8,LPVPPPPVRPSISF [YDL140C 239-252],3380
9,LPAPHRPEKYKERF [YGR154C 67-80],171
10,LRDPVIPIKLAAEK [YGL195W 2564-2577],0

# Target: T4, Boi2 SH3 (BOI2_YEAST), P39969
# Assay: SPOT array
row,"normalised SPOT signal, Boehringer light units (BLU); mean over the file's lines of this peptide",Binder
1,42,LRIPETPVKKSPLV [YJL187C 191-204]
2,77.6,LRKPSAPKRMSSIS [YMR086W 52-65]
3,10.2,LLAPNSPLKNTKSV [YOR124C 391-404]
4,15,LLPPTDPFRRKHEQ [YHR148W 63-76]
5,68.8,LIQPTAPIRDPTRF [YIR029W 48-61]
6,99,LKYPYFPTKMSYLQ [YNL059C 229-242]
7,55.6,LPAPPPPPRRGPAP [YOR181W 341-354]
8,48.9,LPLPTLPDRQLFQT [YPL115C 570-583]
9,49.8,LQIPPLPLKLLTPV [YGR204W 307-320]
10,32.9,LQNPLGPERTFLIM [YLR253W 491-504]
11,353,LPPPIIPLRKYGHN [YGR233C 693-706]
12,45.2,LKRPILPSKNMDHT [YOR191W 344-357]

# The remaining lines, values behind:
row,Binder,"normalised SPOT signal, Boehringer light units (BLU); mean over the file's lines of this peptide"
1,LMPPDSPPRMTENT [YBR275C 1790-1803],162
2,LPVPQLPPKLLVYP [YBR279W 17-30],57.9
3,LLKPETPSKRLVIR [YGL216W 249-262],13.3
4,LRKPRAPMRNVIIT [YER141W 449-462],90.5
5,LRLPEIPPKGDFDV [YFL036W 1327-1340],78.1
6,LNSPDLPERTKLRN [YDL225W 445-458],31.1
7,LPPPRSPNRPTLSD [YER158C 363-376],48500
8,LPVPPPPVRPSISF [YDL140C 239-252],51.2
9,LPAPHRPEKYKERF [YGR154C 67-80],35.8
10,LRDPVIPIKLAAEK [YGL195W 2564-2577],28.8

# Target: T5, Rvs167 SH3 (RV167_YEAST), P39743
# Assay: SPOT array
row,"normalised SPOT signal, Boehringer light units (BLU); mean over the file's lines of this peptide",Binder
1,1.6,LRIPETPVKKSPLV [YJL187C 191-204]
2,276,LRKPSAPKRMSSIS [YMR086W 52-65]
3,26.4,LLAPNSPLKNTKSV [YOR124C 391-404]
4,49.4,LLPPTDPFRRKHEQ [YHR148W 63-76]
5,75.5,LIQPTAPIRDPTRF [YIR029W 48-61]
6,39.3,LKYPYFPTKMSYLQ [YNL059C 229-242]
7,5620,LPAPPPPPRRGPAP [YOR181W 341-354]
8,3860,LPLPTLPDRQLFQT [YPL115C 570-583]
9,78.2,LQIPPLPLKLLTPV [YGR204W 307-320]
10,27.6,LQNPLGPERTFLIM [YLR253W 491-504]
11,1930,LPPPIIPLRKYGHN [YGR233C 693-706]
12,141,LKRPILPSKNMDHT [YOR191W 344-357]

# Further lines, the binder ahead of its results:
row,Binder,"normalised SPOT signal, Boehringer light units (BLU); mean over the file's lines of this peptide"
1,LMPPDSPPRMTENT [YBR275C 1790-1803],1.2
2,LPVPQLPPKLLVYP [YBR279W 17-30],64.4
3,LLKPETPSKRLVIR [YGL216W 249-262],25.7
4,LRKPRAPMRNVIIT [YER141W 449-462],229
5,LRLPEIPPKGDFDV [YFL036W 1327-1340],28.8
6,LNSPDLPERTKLRN [YDL225W 445-458],23300
7,LPPPRSPNRPTLSD [YER158C 363-376],15000
8,LPVPPPPVRPSISF [YDL140C 239-252],769
9,LPAPHRPEKYKERF [YGR154C 67-80],28.8
10,LRDPVIPIKLAAEK [YGL195W 2564-2577],2.2
